Source: patent US20170165338A1

Target: HLA-A*24 (human)
Test: UV-exchange b2m ELISA

Binder | peptide exchange yield [%]
HYPPVQVLF | 50 to 75
LYITEPKTI | 50 to 75
